# Results: PMC7610802 (The Journal of allergy and clinical immunology, 2019)
# T1: mouse soluble ST2 (sST2) (mouse, UniProt P14719-2 27-337, N-linked glycans (shown by PNGase F))
# T1 sequence: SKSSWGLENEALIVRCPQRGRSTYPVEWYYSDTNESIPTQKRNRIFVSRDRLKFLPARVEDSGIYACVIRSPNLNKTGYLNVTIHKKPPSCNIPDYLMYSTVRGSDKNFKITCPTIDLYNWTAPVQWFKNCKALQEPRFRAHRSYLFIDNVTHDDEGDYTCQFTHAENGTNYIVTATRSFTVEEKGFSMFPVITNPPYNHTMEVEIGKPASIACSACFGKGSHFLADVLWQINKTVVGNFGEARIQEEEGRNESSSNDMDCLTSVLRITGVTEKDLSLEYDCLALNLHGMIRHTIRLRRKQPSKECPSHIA
# Target: T1, mouse soluble ST2 (sST2)
# Test: ITC
binder,measurement,value
mouse IL-33 (residues 109-266) (ligand) SIQGTSLLTQSPASLSTYNDQSVSFVLENGCYVINVDDSGKDQEQDQVLLRYYESPCPASQSGDGVDGKKLMVNMSPIKDTDIWLHANDKDYSVELQRGDVSPPEQAFFVLHKKSSDFVSFECKNLPGTYIGVKDNQLALVEEKDESCNNIMFKLSKI,Kd,4.59 nM
